The source of these data is the supplement of paper PMC10899765.

± gives the standard deviation of the averaged measurements.

Settings in all cases: 20 nM; 72 h
Data set [1] concerns MCF10A. Briefly: percent viability (nuclei count relative to siNT); higher = more viable cells. The procedure:
(§1)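 After 72 h, cells were fixed and stained with Hoechst and anti-fibrillarin, and nucleoli per nucleus were counted with CellProfiler. Values are plate-adjusted percent effect for the one-nucleolus and 5+ nucleoli phenotypes, normalised to siNT (0%) and to the positive controls siNOL11 or siKIF11 (100%), as the mean of biological triplicates. Percent viability is the nuclei count relative to siNT.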

For data set [2], the system named is MCF10A. Briefly: 5+ nucleoli phenotype percent effect (relative to siNT 0% and siKIF11 100%); higher = more cells with five or more nucleoli. The procedure: as §1
The test system of data set [3] is MCF10A. Briefly: one-nucleolus phenotype percent effect (relative to siNT 0% and siNOL11 100%); higher = more cells with one nucleolus (ribosome biogenesis inhibition). The procedure: as §1

As for “UGGGAGGGGAGAGGCAGCAAGCA [hsa-miR-4728-5p]”, in data set [1], the percent viability was found to be 7%. For the same sequence, the “5+ nucleoli phenotype percent effect” value in data set [2] was -29.9%. Besides, the “one-nucleolus phenotype percent effect” value in data set [3] came out at 46%.

In the case of UAACAUAAUAGUGUGGAUUGA [hsa-miR-4803], the percent viability in data set [1] was 168%. For the same sequence, in data set [2], the “5+ nucleoli phenotype percent effect” value stood at 40.9%. In addition, the “one-nucleolus phenotype percent effect” value in data set [3] was -25%.

In the case of AGAGUCUUGUGAUGUCUUGC [hsa-miR-924], the percent viability in data set [1] turned out to be 42.5%. In addition, in data set [2], the “5+ nucleoli phenotype percent effect” value was -44.9%. Moreover, the “one-nucleolus phenotype percent effect” value in data set [3] amounted to 24.7%.

On to “UAGGUAGUUUCAUGUUGUUGGG [hsa-miR-196a-5p]”, for which the percent viability in data set [1] turned out to be 33.5%. For the same sequence, the “5+ nucleoli phenotype percent effect” value in data set [2] stood at 23.8%. Further, the “one-nucleolus phenotype percent effect” value in data set [3] is -16.9%.

Consider “AUACCUCAUCUAGAAUGCUGUA [hsa-miR-4777-3p]”, for which the percent viability in data set [1] is 51.3%. Further, in data set [2], the “5+ nucleoli phenotype percent effect” value is -19.6%. The “one-nucleolus phenotype percent effect” value in data set [3] came out at 0.874%.

Take UGUGACAGAUUGAUAACUGAAA [hsa-miR-542-3p]: the percent viability in data set [1] was 39.5%. In data set [2], the “5+ nucleoli phenotype percent effect” value is -17.1%. For the same sequence, in data set [3], the “one-nucleolus phenotype percent effect” value came to 65.1%.

Regarding CAGUGAUUUGAGGAUUAUUGC [hsa-miR-8062], the percent viability in data set [1] came out at 63.9%. Moreover, the “5+ nucleoli phenotype percent effect” value in data set [2] is -26.5%. For the same sequence, in data set [3], the “one-nucleolus phenotype percent effect” value is 7.28%.

For the sequence AAUAAAGUUCAUGUAUGGCAA [hsa-miR-5590-3p], in data set [1], the percent viability came out at 61.8%. The “5+ nucleoli phenotype percent effect” value in data set [2] was -19%. Moreover, the “one-nucleolus phenotype percent effect” value in data set [3] was -1.04%.

Take GAAGGACACUGGUGUCAACGGCU [hsa-miR-8080]: the percent viability in data set [1] was 118%. Besides, the “5+ nucleoli phenotype percent effect” value in data set [2] was determined as 19.9%. In data set [3], the “one-nucleolus phenotype percent effect” value is -9.1%.

Regarding AGGGACUGCCUUAGGAGAAAGUU [hsa-miR-3199], the percent viability in data set [1] was determined as 57.4%. Besides, in data set [2], the “5+ nucleoli phenotype percent effect” value amounted to 42.9%. For the same sequence, the “one-nucleolus phenotype percent effect” value in data set [3] was -15.3%.

On to “AAAUAUAUAUAUAUAUGUACGUAU [hsa-miR-1277-5p]”, for which the percent viability in data set [1] is 47.1%. For the same sequence, the “5+ nucleoli phenotype percent effect” value in data set [2] came out at 64.2%. Besides, the “one-nucleolus phenotype percent effect” value in data set [3] is -29.6%.

With “UGGGGAGCUGAGGCUCUGGGGGUG [hsa-miR-939-5p]”, in data set [1], the percent viability was found to be 82.5%. For the same sequence, the “5+ nucleoli phenotype percent effect” value in data set [2] was determined as 17%. In data set [3], the “one-nucleolus phenotype percent effect” value was -7.29%.

GAAGUUGUUCGUGGUGGAUUCG [hsa-miR-382-5p]: the percent viability in data set [1] worked out at 37.7%. For the same sequence, the “5+ nucleoli phenotype percent effect” value in data set [2] was -18.5%. For the same sequence, the “one-nucleolus phenotype percent effect” value in data set [3] stood at 27.9%.

As for GGGGCUGGGGCCGGGGCCGAGC [hsa-miR-762], in data set [1], the percent viability came out at 59.8%. Also, the “5+ nucleoli phenotype percent effect” value in data set [2] was 53.9%. The “one-nucleolus phenotype percent effect” value in data set [3] was -31.4%.

For the sequence GGGAGUGCAGGGCAGGGUUUC [hsa-miR-504-3p], the percent viability in data set [1] amounted to 36%. Further, the “5+ nucleoli phenotype percent effect” value in data set [2] was -22.6%. Besides, the “one-nucleolus phenotype percent effect” value in data set [3] was found to be 14.7%.

As for “CAGGGCAGGAAGAAGUGGACAA [hsa-miR-4436b-3p]”, the percent viability in data set [1] was found to be 20.5%. The “5+ nucleoli phenotype percent effect” value in data set [2] was -7.65%. Besides, the “one-nucleolus phenotype percent effect” value in data set [3] stood at 31.7%.

Consider UGACCCCUUCUGUCUCCCUAG [hsa-miR-6846-3p], for which, in data set [1], the percent viability came to 47.5%. For the same sequence, the “5+ nucleoli phenotype percent effect” value in data set [2] came out at 10.3%. Also, the “one-nucleolus phenotype percent effect” value in data set [3] was -13.6%.

As to UUAGCGGUGGACCGCCCUGCG [hsa-miR-4321], the percent viability in data set [1] was 47%. For the same sequence, the “5+ nucleoli phenotype percent effect” value in data set [2] came to 3.56%. Further, in data set [3], the “one-nucleolus phenotype percent effect” value was -12.2%.

Turning to “AGCUUCUUUACAGUGCUGCCUUG [hsa-miR-103a-2-5p]”, the percent viability in data set [1] was 36.7%. In data set [2], the “5+ nucleoli phenotype percent effect” value was -36.6%. The “one-nucleolus phenotype percent effect” value in data set [3] was 7.49%.

On to UUUAAGCAGGAAAUAGAAUUUA [hsa-miR-4503], for which the percent viability in data set [1] amounted to 100%. In addition, in data set [2], the “5+ nucleoli phenotype percent effect” value is -5.17%. The “one-nucleolus phenotype percent effect” value in data set [3] was -6.55%.

For the sequence AAUGUAAACAGGCUUUUUGCU [hsa-miR-4495], the percent viability in data set [1] turned out to be 68.8%. In addition, the “5+ nucleoli phenotype percent effect” value in data set [2] amounted to 29.4%. Also, in data set [3], the “one-nucleolus phenotype percent effect” value came out at 2.68%.

Turning to UACCCAGUCUCCGGUGCAGCC [hsa-miR-3130-5p], in data set [1], the percent viability is 27.4%. Moreover, the “5+ nucleoli phenotype percent effect” value in data set [2] was -32.6%. The “one-nucleolus phenotype percent effect” value in data set [3] was determined as 44%.

“AUUGGGGACAUUUUGCAUUCAU [hsa-miR-450a-3p]”: the percent viability in data set [1] was 31.6 ± 3.4%. In addition, in data set [2], the “5+ nucleoli phenotype percent effect” value is -17.5 ± 0.61%. For the same sequence, the “one-nucleolus phenotype percent effect” value in data set [3] turned out to be 7.56 ± 4.4%.

Regarding UAAGGCACCCUUCUGAGUAGA [hsa-miR-506-3p], the percent viability in data set [1] worked out at 15.7%. Further, the “5+ nucleoli phenotype percent effect” value in data set [2] was -31.8%. The “one-nucleolus phenotype percent effect” value in data set [3] was found to be 57.2%.

As for “AAGAGGAAGAAAUGGCUGGUUCUCAG [hsa-miR-3916]”, the percent viability in data set [1] stood at 14%. For the same sequence, the “5+ nucleoli phenotype percent effect” value in data set [2] was -13.2%. The “one-nucleolus phenotype percent effect” value in data set [3] was -5.24%.

As to UGAGUUGGCCAUCUGAGUGAG [hsa-miR-571], in data set [1], the percent viability was 84.6%. Moreover, the “5+ nucleoli phenotype percent effect” value in data set [2] was found to be 5.09%. Also, the “one-nucleolus phenotype percent effect” value in data set [3] is -7.45%.

Take UGGGCUGGCAGGGCAAGUGCUG [hsa-miR-4498]: the percent viability in data set [1] was determined as 9.7%. The “5+ nucleoli phenotype percent effect” value in data set [2] was -6.13%. Besides, in data set [3], the “one-nucleolus phenotype percent effect” value is 38.7%.

Turning to “UGAAGUACCAGCUACUCGAGAG [hsa-miR-5585-5p]”, in data set [1], the percent viability came to 36.7%. Besides, the “5+ nucleoli phenotype percent effect” value in data set [2] is -8.83%. The “one-nucleolus phenotype percent effect” value in data set [3] is -3.33%.

On to “GCCCCGGCGCGGGCGGGUUCUGG [hsa-miR-4707-5p]”, for which, in data set [1], the percent viability was determined as 116%. For the same sequence, in data set [2], the “5+ nucleoli phenotype percent effect” value was determined as 42.2%. In addition, in data set [3], the “one-nucleolus phenotype percent effect” value is -25%.

For GGUAUCCGUUUGGGGAUGGU [hsa-miR-3713], the percent viability in data set [1] turned out to be 23.5%. Also, the “5+ nucleoli phenotype percent effect” value in data set [2] is -27.6%. Further, the “one-nucleolus phenotype percent effect” value in data set [3] was determined as 11.4%.

“GAGUGGAUAGGGGAGUGUGUGGA [hsa-miR-6849-5p]”: the percent viability in data set [1] was determined as 126%. Further, in data set [2], the “5+ nucleoli phenotype percent effect” value was 31%. Moreover, in data set [3], the “one-nucleolus phenotype percent effect” value was -18.4%.

UCAGCUGGCCCUCAUUUC [hsa-miR-1207-3p]: in data set [1], the percent viability is 15.3%. The “5+ nucleoli phenotype percent effect” value in data set [2] is -48.5%. Besides, in data set [3], the “one-nucleolus phenotype percent effect” value worked out at 65%.

Regarding CGGUGGACUGGAGUGGGUGG [hsa-miR-8071], the percent viability in data set [1] was 9.26%. The “5+ nucleoli phenotype percent effect” value in data set [2] was -15.7%. In addition, in data set [3], the “one-nucleolus phenotype percent effect” value was 22.4%.

For UGAGGGCUCCAGGUGACGGUGG [hsa-miR-4721], the percent viability in data set [1] amounted to 22%. Besides, in data set [2], the “5+ nucleoli phenotype percent effect” value was -20.6%. For the same sequence, the “one-nucleolus phenotype percent effect” value in data set [3] amounted to 27.2%.

On to ACGGCCCAGGCGGCAUUGGUG [hsa-miR-6075], for which the percent viability in data set [1] turned out to be 87.5%. The “5+ nucleoli phenotype percent effect” value in data set [2] was 5.39%. The “one-nucleolus phenotype percent effect” value in data set [3] is -5.35%.

For the sequence UCAUAUUGCUUCUUUCU [hsa-miR-1279], in data set [1], the percent viability was determined as 187%. In addition, the “5+ nucleoli phenotype percent effect” value in data set [2] is 35.8%. Also, the “one-nucleolus phenotype percent effect” value in data set [3] was -26.6%.
